# Test results taken from US11453711B2, “Fusion proteins of GLP-1 and GDF15 and conjugates thereof” (BEIJING QL BIOPHARMACEUTICAL CO., LTD., priority 2019, dated 2022).
# Columns and labels:
# [1] = Body weight and food intake in C57BL/6 mice, unconjugated fusion proteins, 30 nmol/kg daily 10 days; format: in vivo; conditions: for Body weight reduction at 30 nmol/kg (% reduction compared to vehicle)(Day11) / Cumulative food intake reduction at 30 nmol/kg (% reduction compared to vehicle)(Day11): C57 mice, 30 nmol/kg daily, Day11, unconjugated fusion proteins
# Protocol: (§1) 10 week old male C57BL/6 mice were injected everyday subcutaneously with 15 nmol/kg of the fusion protein conjugates (i.e., MLC002, MLC 004, MLC 005, MLC 006, MLC 007, MLC 008, and MLC 009) for 14 days. Food intake and body weight were measured daily and five animals were used for each treatment group. Body weight (BW) was monitored for each individual animal, but food intake for each group animals was measured together. Day 1 and Day 14 are first day and last day of molecule dosage. % BW loss=100*(BW on Day n-BW on Day 1)/(BW on Day 1). Cumulative food intake on Day n represents sum of food intake from Day 1 to Day n. Data are indicated as mean values and standard error (SEM) or pooled values. Statistical analysis was performed by One-way ANOVA. Body weight reduction on Day 11 is calculated by −1*(% BW loss−% BW loss of vehicle group); Cumulative food intake reduction is calculated by −100*(cumulative food intake-cumulative food intake of vehicle)/cumulative food intake of vehicle.
# As described in the above method, a daily dose of 30 nmol/kg of the unconjugated fusion proteins (i.e., MLC100, MLC023, MLC022, MLC020, MLC003, MLC124, MLC021, MLC019, MLC102) were administered to C57BL/6 for 10 days. Data were calculated as above method. Day 1 and Day 10 are first day and last day of administration.
# [2] = Pharmacokinetic measurement in mouse, single sc dose 30 nmol/kg, plasma ELISA; conditions: for Cmax: read-out: Cmax (nmol/L), single sc dose 30 nmol/kg; for exposure (Cmax and AUC) / half-life (T1/2): single sc 30 nmol/kg, in words; for AUC0-24 h / Terminal t1/2 / Tmax: single sc dose 30 nmol/kg
# Protocol: Each fusion protein was injected subcutaneously into C57BL/6 mice (n=3/group) once and plasma samples were collected at designed time points and analyzed by ELISA method. Plasma concentrations are indicated as mean values and standard error (SEM).
# 6-8 week old male C57BL/6 mice were administrated in a single subcutaneous dose of 30 nmol/kg of the fusion protein conjugates or unconjugated fusion proteins (i.e., MLC002, MLC004, MLC005, MLC006, MLC007, MLC008, MLC009, MLC013, MLC017, MLC047, MLC074, MLC075, MLC089, MLC093, MLC003 and MLC019) (n=3/group). Plasma samples were collected pre-dose (−5 min), 0.5 hr, 1 hr, 2 hr, 4 hr, 6 hr, 8 hr, 12 hr, 24 hr, 48 hr and 72 hr after the injection. The concentrations of the fusion protein conjugates in the plasma were measured by an ELISA assay which has immunoreactivity towards both GDF15 and intact N-terminal of GLP-1. Based on the graph showing plasma concentration of each protein versus time after subcutaneous injection, the pharmacokinetic parameters (including Tmax, Cmax, T1/2, AUC) were calculated by WinNonlin software.
# [3] = Body weight and food intake in C57BL/6 mice, fusion protein conjugates, 30 nmol/kg daily 10 days; format: in vivo
# Protocol: as §1
# Data were calculated in the same way as described above. Day 1 and Day 10 are first day and last day of the administration.
# MLC014 was used as a negative control. MLC014 has an amino acid sequence of SEQ ID NO: 261, which contains a linker fused to the N terminal of GDF15, with a CRM conjugated to the lysine residue in the linker. Tirzepatide was also used as a control.
# [4] = Efficacy in db/db mice: body weight, food intake, glucose, biomarkers, daily sc 14 days; format: in vivo
# Protocol: (§2) FIGS. 4A-4D show In vivo efficacy in db/db mice. To evaluate the body weight, food intake and glucose effects of the fusion proteins, 8 week old male db/db mice were dosed everyday subcutaneously with 30 nmol/kg protein for 14 days. […] Compared to Vehicle control: ***, p<0.001. Data are expressed as mean values and standard error (SEM) for FIGS. 4A, 4B and 4D. n=5 for each treatment group. For FIG. 4C, a pooled food intake was measured for each treatment group.
# FIGS. 5A-5F show In vivo efficacy in db/db mice. To evaluate the body weight, food intake and glucose effects of the fusion proteins, 8 week old male db/db mice were dosed everyday subcutaneously with different concentrations of proteins for 14 days. FIGS. 5A and 5B show body weight loss upon protein treatments from Day1 to Day15. […] Compared to Vehicle control: ***, p<0.001; **, p<0.01; *, p<0.05; ns, non-statistically significant; FIGS. 5D and 5E show cumulative food intake with protein treatments from Day1 to Day15. […] Compared to Vehicle control: ***, p<0.001**, p<0.01; *, p<0.05; ns, non-statistically significant. Data are expressed as mean values and standard error (SEM) for FIGS. 5A, 5B, 5C and 5F. n=5 for each treatment group. For FIGS. 5D and 5E, a pooled food intake was measured for each treatment group.
# as §2, with “8A-8I” for “4A-4D”, “different concentrations of proteins” for “30 nmol/kg protein”, “FIGS. 8D-8F show body weight loss upon dose titrations of fusion protein conjugates. […]” for “Compared to Vehicle control: ***, p<0.001.”, “8A” for “4A, 4B”, “8C-I.” for “4D.”, “8B,” for “4C,”
# Selected fusion protein conjugates are assessed in disease animal models (DIO mice, db/db mice, etc.) to determine body weight, food intake, glucose efficacy with dose responses. Some biomarkers are also measured, including fasting insulin, plasma triglyceride, cholesterol, liver triglyceride, and inflammatory biomarkers (ALT, AST and CRP).
# 8 week old male db/db mice were injected everyday subcutaneously with designated proteins for 14 days. Age matched lean mice were used as control. Food intake and body weight were measured daily and five animals were used for each treatment group. Fasting glucose were tested on designated days as shown in each figure. Body weight was monitored for each individual animal, but food intake for each group animals was measured together. Day 1 and Day 14 are first day and last day of molecule dosage. % BW loss=100*(BW on Day n-BW on Day 1)/(BW on Day 1). Cumulative food intake on Day n represents sum of food intake from Day 1 to Day n. Terminal blood was collected and EDTA-2K plasma was prepared and frozen at −80° C. for biomarker measurement. Liver was also collected and frozen in liquid nitrogen and store at −80° C. Data are indicated as mean values and standard error (SEM) or pooled values. Statistical analysis was performed by One-way ANOVA.
# [5] = PK study in non-human primates, single sc dose 5 nmol/kg, plasma ELISA; conditions: monkey, single sc dose 5 nmol/kg; for Cmax: read-out: Cmax (nmol/L)
# [6] = 30 nmol/kg daily 14 days, FIG. 4, versus Semaglutide
# [7] = 30 nmol/kg, FIG. 5A-E, versus Semaglutide, Tirzepatide and MLC014
# [8] = 30 nmol/kg, FIG. 8A-C, versus Semaglutide, Tirzepatide and MLC014
molecule,measurement,setting,value
MLC102: unconjugated GLP-1/GDF15 fusion protein (protein) HGEGTFTSDVSSYLEEQAAKEFIAWLVRGGGGQEPGAQPGQEPGAQPGQEPGAQPGQEPGAQPGQEPGAQPGQEPGAQPGAQPGAQPGAQPGAQPGAQPGAQPGAQPGAQPGAQPGAQPGAQPGAQPGAQPGAQPGAQPGAQPGAQPGAQPARQGDHCPLGPGRCCRLHTVRASLEDLGWADWVLSPREVQVTMCIGACPSQFRAANLHAQIKTSLHRLKPDTVPAPCCVPASYNPMVLIQKTDTGVSLQTYDDLLAKDCHCI,Body weight reduction at 30 nmol/kg (% reduction compared to vehicle)(Day11),[1],29.3%
same,Cumulative food intake reduction at 30 nmol/kg (% reduction compared to vehicle)(Day11),[1],36.9%
MLC003: unconjugated GLP-1/GDF15 fusion protein (protein) HGEGTFTSDVSSYLEEQAAKEFIAWLVRGGGGQEPGQEPGQEPGQEPGQEPGQEPGQEPGQEPGAQPGAQPARQGDHCPLGPGRCCRLHTVRASLEDLGWADWVLSPREVQVTMCIGACPSQFRAANLHAQIKTSLHRLRPDTVPAPCCVPASYNPMVLIQRTDTGVSLQTYDDLLARDCHCI,Body weight reduction at 30 nmol/kg (% reduction compared to vehicle)(Day11),[1],15.5%
same,Cumulative food intake reduction at 30 nmol/kg (% reduction compared to vehicle)(Day11),[1],25.3%
same,Cmax,[2],24.7 nmol/L
same,exposure (Cmax and AUC),[2],much shorter half-lives and exposures than MLC002 and MLC004
same,half-life (T1/2),[2],much shorter half-lives and exposures than MLC002 and MLC004
same,AUC0-24 h,[2],0.1074 µM·h
same,Terminal t1/2,[2],3.5 h
same,Tmax,[2],1.0 h
MLC020: unconjugated GLP-1/GDF15 fusion protein (protein) HGEGTFTSDVSSYLEEQAAKEFIAWLVRGGGGQEPGQEPGQEPGQEPGQEPGQEPGQEPGQEPGAQPGAQPARQGDHCPLGPGRCCRLHTVRASLEDLGWADWVLSPREVQVTMCIGACPSQFRAANLHAQIKTSLHRLKPDTVPAPCCVPASYNPMVLIQKTDTGVSLQTYDDLLAKDCHCI,Body weight reduction at 30 nmol/kg (% reduction compared to vehicle)(Day11),[1],17.0%
same,Cumulative food intake reduction at 30 nmol/kg (% reduction compared to vehicle)(Day11),[1],26.0%
"MLC019: unconjugated GLP-1/GDF15 fusion protein, linker of at least 80 residues (protein) HGEGTFTSDVSSYLEEQAAKEFIAWLVRGGGGQEPGAQPGQEPGAQPGQEPGAQPGQEPGAQPGQEPGAQPGQEPGAQPGAQPGAQPGAQPGAQPGAQPGAQPGAQPGAQPARQGDHCPLGPGRCCRLHTVRASLEDLGWADWVLSPREVQVTMCIGACPSQFRAANLHAQIKTSLHRLRPDTVPAPCCVPASYNPMVLIQRTDTGVSLQTYDDLLARDCHCI",Body weight reduction at 30 nmol/kg (% reduction compared to vehicle)(Day11),[1],23.0%
same,Cumulative food intake reduction at 30 nmol/kg (% reduction compared to vehicle)(Day11),[1],48.6%
same,in vivo efficacy (food intake and body weight reduction),"[1]; unconjugated fusion proteins, 30 nmol/kg daily 10 days, by linker length",the most significant results among all the tested fusion proteins
same,Cmax,[2],23.7 nmol/L
same,exposure (Cmax and AUC),[2],much shorter half-lives and exposures than MLC002 and MLC004
same,half-life (T1/2),[2],much shorter half-lives and exposures than MLC002 and MLC004
same,AUC0-24 h,[2],0.2639 µM·h
same,Terminal t1/2,[2],4.8 h
same,Tmax,[2],4.0 h
"MLC013: fusion polypeptide SEQ ID NO: 260 conjugated with Moiety A at 1K of Linker (conjugate, Moiety A conjugated at linker K1) HGEGTFTSDVSSYLEEQAAREFIAWLVRGGGKQEPGAQPGQEPGAQPGQEPGAQPGQEPGAQPGQEPGAQPGQEPGAQPGAQPGAQPGAQPGAQPGAQPGAQPGAQPGAQPARQGDHCPLGPGRCCRLHTVRASLEDLGWADWVLSPREVQVTMCIGACPSQFRAANLHAQIKTSLHRLRPDTVPAPCCVPASYNPMVLIQRTDTGVSLQTYDDLLARDCHCI",Body weight reduction at 30 nmol/kg (% reduction compared to vehicle)(Day11),[3],21.4%
same,Cumulative food intake reduction at 30 nmol/kg (% reduction compared to vehicle)(Day11),[3],45.2%
same,body weight loss,[4]; [6],sustainable and much better effect
same,food intake suppression,[4]; [6],sustainable and much better effect
same,glucose lowering effect,"[4]; 30 nmol/kg daily 14 days, FIG. 4D",comparable glucose lowering effect to Semaglutide
same,body weight loss,[4]; [7],sustainable and much better effect
same,food intake suppression,[4]; [7],sustainable and much better effect
same,efficacy,[4]; FIG. 5 study,better efficacy than Semaglutide and GDF15 derivative (MLC014)
same,AUC0-96 h,[5],1.435 µM·h
same,Terminal t1/2,[5],26 h
same,Tmax,[5],7 h
same,Cmax,[5],41.3 nmol/L
same,Cmax,[2],38.5 nmol/L
same,AUC0-24 h,[2],0.5035 µM·h
same,Terminal t1/2,[2],8.9 h
same,Tmax,[2],3.3 h
MLC100: unconjugated GLP-1/GDF15 fusion protein (protein) HGEGTFTSDVSSYLEEQAAKEFIAWLVRGGGGQEPARQGDHCPLGPGRCCRLHTVRASLEDLGWADWVLSPREVQVTMCIGACPSQFRAANLHAQIKTSLHRLKPDTVPAPCCVPASYNPMVLIQKTDTGVSLQTYDDLLAKDCHCI,Body weight reduction at 30 nmol/kg (% reduction compared to vehicle)(Day11),[1],9.9%
same,Cumulative food intake reduction at 30 nmol/kg (% reduction compared to vehicle)(Day11),[1],26.3%
"MLC090: fusion polypeptide SEQ ID NO: 379 conjugated with Moiety C at 39C of Linker (conjugate, Moiety C conjugated at linker Cys39) HGEGTFTSDVSSYLEEQAAKEFIAWLVRGGGGAQPGAQPGAQPGAQPGAQPGAQPGAQPGAQPGQEPGQCPGQEPGAQPGQEPGAQPGQEPGAQPGQEPGAQPGQEPGAQPARQGDHCPLGPGRCCRLHTVRASLEDLGWADWVLSPREVQVTMCIGACPSQFRAANLHAQIKTSLHRLKPDTVPAPCCVPASYNPMVLIQKTDTGVSLQTYDDLLAKDCHCI",Body weight reduction at 30 nmol/kg (% reduction compared to vehicle)(Day11),[3],24.5%
same,Cumulative food intake reduction at 30 nmol/kg (% reduction compared to vehicle)(Day11),[3],44.4%
same,body weight loss,[4]; [8],"more body weight loss, food intake suppression and glycemic control"
same,food intake suppression,[4]; [8],"more body weight loss, food intake suppression and glycemic control"
same,glycemic control,[4]; [8],"more body weight loss, food intake suppression and glycemic control"
same,efficacy,[4]; FIG. 8 study,better efficacy than Semaglutide and GDF15 derivative (MLC014)
same,AUC0-96 h,[5],1.987 µM·h
same,Terminal t1/2,[5],40 h
same,Tmax,[5],7 h
same,Cmax,[5],36 nmol/L
